According to patent US20210388081A1 (Memorial Sloan Kettering, published 2021):

Key:
[1] = biological target: anti-FcRL5/CD3 bispecific antibody generated using the ET200-104 scFv; assay: ELISA, ET200-104 coated at 1 µg/ml on a Nunc Maxisorp plate; for some dilutions of the secondary Ab
[2] = biological target: anti-FcRL5/CD3 bispecific antibody generated using the ET200-117 scFv; assay: ELISA, ET200-117 coated at 1 µg/ml on a Nunc Maxisorp plate; for some dilutions of the secondary Ab
[3] = biological target: SLAMF9 protein (UniProt Q96A28 19-236, limits assumed); assay: phage clone on SLAMF9 protein
Sequence of SLAMF9 protein (Q96A28 19-236 limits assumed): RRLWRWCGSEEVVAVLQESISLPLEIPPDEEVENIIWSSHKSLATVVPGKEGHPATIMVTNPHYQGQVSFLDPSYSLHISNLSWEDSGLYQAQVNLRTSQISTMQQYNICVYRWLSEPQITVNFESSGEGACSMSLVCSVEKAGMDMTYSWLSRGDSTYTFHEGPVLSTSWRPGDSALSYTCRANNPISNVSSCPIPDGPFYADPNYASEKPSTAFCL

[4] = biological target: T1, FcRL1, overexpressed on 3T3 cells (UniProt Q96LA6 17-429, limits assumed); assay: phage clone on 3T3-FcRL1 cells
T1 construct: whole, on cells
T1 sequence (looked up): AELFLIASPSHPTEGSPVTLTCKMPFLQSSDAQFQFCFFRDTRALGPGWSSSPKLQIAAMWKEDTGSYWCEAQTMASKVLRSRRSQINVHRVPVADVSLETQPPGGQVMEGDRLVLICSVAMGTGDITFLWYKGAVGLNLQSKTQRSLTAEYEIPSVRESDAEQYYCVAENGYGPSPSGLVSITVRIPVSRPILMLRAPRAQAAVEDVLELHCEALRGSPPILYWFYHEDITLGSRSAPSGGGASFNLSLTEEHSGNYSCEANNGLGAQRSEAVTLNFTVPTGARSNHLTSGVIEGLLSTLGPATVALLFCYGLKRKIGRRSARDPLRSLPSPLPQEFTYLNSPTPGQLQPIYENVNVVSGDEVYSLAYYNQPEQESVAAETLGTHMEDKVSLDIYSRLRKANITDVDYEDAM

[5] = biological target: T2, FcRL2, overexpressed on 3T3 cells (UniProt Q96LA5 20-508, limits assumed); assay: phage clone on 3T3-FcRL2 cells
T2 construct: whole, on cells
T2 sequence (looked up): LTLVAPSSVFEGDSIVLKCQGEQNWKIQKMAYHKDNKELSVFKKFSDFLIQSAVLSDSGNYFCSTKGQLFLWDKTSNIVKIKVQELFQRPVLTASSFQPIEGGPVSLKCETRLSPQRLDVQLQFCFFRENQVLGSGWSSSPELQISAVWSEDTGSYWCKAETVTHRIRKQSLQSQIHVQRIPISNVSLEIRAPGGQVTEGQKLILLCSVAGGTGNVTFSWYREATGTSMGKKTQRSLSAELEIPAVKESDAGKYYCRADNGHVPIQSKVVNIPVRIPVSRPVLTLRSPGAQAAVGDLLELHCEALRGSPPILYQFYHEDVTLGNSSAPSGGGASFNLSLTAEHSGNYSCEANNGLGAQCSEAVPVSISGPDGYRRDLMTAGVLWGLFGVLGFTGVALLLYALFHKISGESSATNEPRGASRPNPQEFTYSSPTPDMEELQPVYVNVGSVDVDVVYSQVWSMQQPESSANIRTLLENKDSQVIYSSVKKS

[6] = biological target: T3, FcRL3, overexpressed on 3T3 cells (UniProt Q96P31 18-734, limits assumed); assay: phage clone on 3T3-FcRL3 cells
T3 construct: whole, on cells
T3 sequence (looked up): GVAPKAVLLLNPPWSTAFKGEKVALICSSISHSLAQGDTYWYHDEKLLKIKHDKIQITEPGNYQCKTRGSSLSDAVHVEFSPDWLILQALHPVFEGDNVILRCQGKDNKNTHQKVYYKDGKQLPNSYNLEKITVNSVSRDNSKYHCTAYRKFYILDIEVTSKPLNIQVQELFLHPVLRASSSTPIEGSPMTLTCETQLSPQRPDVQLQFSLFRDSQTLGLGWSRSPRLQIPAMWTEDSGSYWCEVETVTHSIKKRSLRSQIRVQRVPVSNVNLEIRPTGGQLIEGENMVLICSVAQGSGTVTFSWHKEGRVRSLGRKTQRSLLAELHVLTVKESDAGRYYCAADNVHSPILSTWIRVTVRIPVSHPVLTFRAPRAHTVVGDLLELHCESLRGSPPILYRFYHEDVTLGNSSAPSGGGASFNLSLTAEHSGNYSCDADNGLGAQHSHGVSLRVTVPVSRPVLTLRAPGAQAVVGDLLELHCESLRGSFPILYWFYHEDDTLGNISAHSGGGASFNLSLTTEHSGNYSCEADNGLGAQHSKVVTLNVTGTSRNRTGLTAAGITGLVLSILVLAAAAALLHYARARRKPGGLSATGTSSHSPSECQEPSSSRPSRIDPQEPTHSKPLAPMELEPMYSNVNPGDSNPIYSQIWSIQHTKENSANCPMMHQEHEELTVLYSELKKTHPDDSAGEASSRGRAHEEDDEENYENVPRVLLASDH

[7] = biological target: T4, FcRL4, overexpressed on 3T3 cells (UniProt Q96PJ5 20-515, limits assumed); assay: phage clone on 3T3-FcRL4 cells
T4 construct: whole, on cells
T4 sequence (looked up): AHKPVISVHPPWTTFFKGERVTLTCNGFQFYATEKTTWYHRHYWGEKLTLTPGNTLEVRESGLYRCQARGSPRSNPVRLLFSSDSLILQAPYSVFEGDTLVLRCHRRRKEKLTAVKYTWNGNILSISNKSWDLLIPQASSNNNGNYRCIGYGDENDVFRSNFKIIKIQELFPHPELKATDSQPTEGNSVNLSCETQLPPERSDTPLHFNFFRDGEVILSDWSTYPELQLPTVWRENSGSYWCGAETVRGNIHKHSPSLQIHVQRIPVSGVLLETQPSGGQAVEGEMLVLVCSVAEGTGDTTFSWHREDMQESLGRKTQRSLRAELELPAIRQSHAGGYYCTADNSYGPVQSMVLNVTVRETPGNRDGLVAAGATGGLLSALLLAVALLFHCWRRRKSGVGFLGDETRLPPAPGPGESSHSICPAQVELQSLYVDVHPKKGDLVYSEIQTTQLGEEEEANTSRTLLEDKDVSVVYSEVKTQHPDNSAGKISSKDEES

[8] = biological target: T5, FcRL6, overexpressed on 3T3 cells (UniProt Q6DN72 20-434, limits assumed); assay: phage clone on 3T3-FcRL6 cells
T5 construct: whole, on cells
T5 sequence (looked up): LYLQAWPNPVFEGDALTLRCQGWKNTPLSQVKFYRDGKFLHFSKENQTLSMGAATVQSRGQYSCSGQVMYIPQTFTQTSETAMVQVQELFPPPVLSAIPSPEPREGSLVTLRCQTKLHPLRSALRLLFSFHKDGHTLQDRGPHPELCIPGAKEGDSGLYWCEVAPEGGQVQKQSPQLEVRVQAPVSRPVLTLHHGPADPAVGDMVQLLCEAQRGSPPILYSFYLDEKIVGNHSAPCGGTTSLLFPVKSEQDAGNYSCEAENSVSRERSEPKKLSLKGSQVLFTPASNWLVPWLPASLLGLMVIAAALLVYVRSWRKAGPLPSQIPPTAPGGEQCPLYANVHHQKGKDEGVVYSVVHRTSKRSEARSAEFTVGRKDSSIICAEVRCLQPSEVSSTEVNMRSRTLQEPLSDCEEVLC

Sequence of anti-FcRL5/CD3 bispecific antibody generated using the ET200-117 scFv (scFv, as listed by the source limits assumed, form in doubt): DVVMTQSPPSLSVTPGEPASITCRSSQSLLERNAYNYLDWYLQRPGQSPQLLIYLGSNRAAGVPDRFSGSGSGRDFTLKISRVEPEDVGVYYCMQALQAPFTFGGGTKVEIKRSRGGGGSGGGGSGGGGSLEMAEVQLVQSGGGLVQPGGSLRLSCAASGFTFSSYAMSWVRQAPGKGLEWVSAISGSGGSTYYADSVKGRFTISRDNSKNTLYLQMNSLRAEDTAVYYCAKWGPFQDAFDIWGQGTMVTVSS

Goat Anti-Human Ig-HRP (Southern Biotech; #2010/05) (antibody)
OD [1]: > 1 OD | OD [2]: > 1 OD

B1: ET200-024 (scFv)
scFv: NFMLTQPHSVSESPGKTVTISCTGSSGSIASNYVQWYQQRPGSAPTTVIYEDNQRPSGVPDRFSGSIDSSSNSASLTISGLKTEDEADYYCQSYDSSNLWVFGGGTKLTVLGSRGGGGSGGGGSGGGGSLEMAQMQLVQSGAEVKKPGSSVKVSCKASGGTFSSYAISWVRQAPGQGLEWMGGIIPIFGTANYAQKFQGRVTITADESTSTAYMELSSLRSEDTAVYYCARYNYYYYDSWGQGTLVTVSSTSGQAGQHHHHHHGAYPYDVPDYAS
notes: screened as phage clone; entry is VL-linker-VH-His tag-HA tag
binding result [3]: no binding | binding result [4]: no binding | binding result [5]: no binding | binding result [6]: no binding | binding result [7]: no binding | binding result [8]: no binding

B2: ET200-037 (scFv)
scFv: SYVLTQPPSVSVAPGKTARITCGGNNIGSKSVHWYQQKPGQAPVLVIYYDSDRPSGIPERFSGSNSGNTATLTISRVEAGDEADYYCQVWDSSSDHPYVFGTGTKVTVLGSRGGGGSGGGGSGGGGSLEMAQMQLVQSGAEVKKPGASVKVSCKASGYTFTSYGISWVRQAPGQGLEWMGWISAYNGNTNYAQKLQGRVTMTTDTSTSTAYMELRSLRSDDTAVYYCARSMFGAHDSWGQGTLVTVSSTSGQAGQHHHHHHGAYPYDVPDYAS
notes: as for B1
binding result [3]: no binding | binding result [4]: no binding | binding result [5]: no binding | binding result [6]: no binding | binding result [7]: no binding | binding result [8]: no binding
